In paper PMC9410875, “FOXL2 and FOXA1 cooperatively assemble on the TP53 promoter in alternative dimer configurations” one finds binding result and Kd data, which are given here for 5 molecules.

One data set concerns the target T1, FOXA1-DBD (UniProt P55317 168-264).
T1 sequence: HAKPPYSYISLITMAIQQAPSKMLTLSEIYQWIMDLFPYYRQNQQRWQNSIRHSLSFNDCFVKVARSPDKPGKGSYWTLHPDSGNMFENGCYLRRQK
Put plainly: X-ray crystallography; 2:1, 2.1 A; Mg2+ at dimer interface; ITC: 20 mM HEPES pH 7.5, 150 mM NaCl, 10 mM MgCl2, 298 K. EMSA: 2.5 uM DNA, 20 mM HEPES pH 7.5, 50 mM KCl, 10 mM MgCl2, 1 mM DTT, 10% glycerol, on ice 30 min; FOXA1 EMSA: 20 mM Tris-HCl pH 8.0, 0.1 mg/ml BSA, 50 uM ZnCl2, 100 mM KCl, 2 mM beta-mercaptoethanol, 10% glycerol (50 mM EDTA for Mg2+ depletion). The note with it: protein: recombinant; tags: GST tag cleaved by TEV; chain copies: 2; blunt. For orientation: Mobility shift assays separate free from complexed probe on a gel.

Data set [1] concerns the target T2, FOXL2-DBD (Homo sapiens, UniProt P58012 52-148).
T2 sequence: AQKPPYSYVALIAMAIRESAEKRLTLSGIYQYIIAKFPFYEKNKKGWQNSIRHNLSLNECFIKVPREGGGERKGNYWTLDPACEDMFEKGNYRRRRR
Put plainly: ITC; 2:1 stoichiometry, biphasic; Kd values not in the text; ITC: 20 mM HEPES pH 7.5, 150 mM NaCl, 10 mM MgCl2, 298 K. EMSA: 2.5 uM DNA, 20 mM HEPES pH 7.5, 50 mM KCl, 10 mM MgCl2, 1 mM DTT, 10% glycerol, on ice 30 min; FOXA1 EMSA: 20 mM Tris-HCl pH 8.0, 0.1 mg/ml BSA, 50 uM ZnCl2, 100 mM KCl, 2 mM beta-mercaptoethanol, 10% glycerol (50 mM EDTA for Mg2+ depletion). The note with it: protein: recombinant; tags: GST tag cleaved by TEV; blunt.

The next data set deals with T3, FOXA1-DBD S177A (UniProt P55317 168-264, S177A).
T3 sequence: T1 sequence with S10A
Put plainly: EMSA; little change vs wild type; ITC: 20 mM HEPES pH 7.5, 150 mM NaCl, 10 mM MgCl2, 298 K. EMSA: 2.5 uM DNA, 20 mM HEPES pH 7.5, 50 mM KCl, 10 mM MgCl2, 1 mM DTT, 10% glycerol, on ice 30 min; FOXA1 EMSA: 20 mM Tris-HCl pH 8.0, 0.1 mg/ml BSA, 50 uM ZnCl2, 100 mM KCl, 2 mM beta-mercaptoethanol, 10% glycerol (50 mM EDTA for Mg2+ depletion). The note with it: protein: recombinant; label: 5' Cy3 on strand 1 (legends say Cy5); blunt.

Data set [2] addresses T2, FOXL2-DBD. Put plainly: ITC; 1:1 stoichiometry; 10 mM MgCl2, 298 K; ITC: 20 mM HEPES pH 7.5, 150 mM NaCl, 10 mM MgCl2, 298 K. EMSA: 2.5 uM DNA, 20 mM HEPES pH 7.5, 50 mM KCl, 10 mM MgCl2, 1 mM DTT, 10% glycerol, on ice 30 min; FOXA1 EMSA: 20 mM Tris-HCl pH 8.0, 0.1 mg/ml BSA, 50 uM ZnCl2, 100 mM KCl, 2 mM beta-mercaptoethanol, 10% glycerol (50 mM EDTA for Mg2+ depletion). The note with it: protein: recombinant; tags: GST tag cleaved by TEV; blunt. (In ITC the heat of successive injections is recorded.)

The target in data set [3] is T2, FOXL2-DBD. Put plainly: ITC; 1:1 one-site curve; biphasic pattern lost; ITC: 20 mM HEPES pH 7.5, 150 mM NaCl, 10 mM MgCl2, 298 K. EMSA: 2.5 uM DNA, 20 mM HEPES pH 7.5, 50 mM KCl, 10 mM MgCl2, 1 mM DTT, 10% glycerol, on ice 30 min; FOXA1 EMSA: 20 mM Tris-HCl pH 8.0, 0.1 mg/ml BSA, 50 uM ZnCl2, 100 mM KCl, 2 mM beta-mercaptoethanol, 10% glycerol (50 mM EDTA for Mg2+ depletion). To be noted: protein: recombinant; tags: GST tag cleaved by TEV; blunt.

The next data set addresses T4, FOXL2 full-length (UniProt P58012 1-376).
T4 sequence: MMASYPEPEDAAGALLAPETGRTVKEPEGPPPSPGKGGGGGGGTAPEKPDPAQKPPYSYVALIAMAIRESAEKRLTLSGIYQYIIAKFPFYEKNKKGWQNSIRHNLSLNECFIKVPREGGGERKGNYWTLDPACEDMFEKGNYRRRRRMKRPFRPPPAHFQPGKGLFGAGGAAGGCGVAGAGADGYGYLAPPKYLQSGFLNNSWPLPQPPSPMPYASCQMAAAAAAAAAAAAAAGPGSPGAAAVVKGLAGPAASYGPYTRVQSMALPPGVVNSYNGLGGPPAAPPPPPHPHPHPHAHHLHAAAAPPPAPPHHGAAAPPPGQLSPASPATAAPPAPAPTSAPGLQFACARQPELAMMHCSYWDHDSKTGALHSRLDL
Put plainly: EMSA; 1 or 10 ug protein; ITC: 20 mM HEPES pH 7.5, 150 mM NaCl, 10 mM MgCl2, 298 K. EMSA: 2.5 uM DNA, 20 mM HEPES pH 7.5, 50 mM KCl, 10 mM MgCl2, 1 mM DTT, 10% glycerol, on ice 30 min; FOXA1 EMSA: 20 mM Tris-HCl pH 8.0, 0.1 mg/ml BSA, 50 uM ZnCl2, 100 mM KCl, 2 mM beta-mercaptoethanol, 10% glycerol (50 mM EDTA for Mg2+ depletion). To be noted: protein: recombinant; label: 32P.

Substitutions are numbered along the chain they refer to.

B1: p53-DNA 16 bp (dsDNA)
DNA 1: AAATATTTATTATCGA
DNA 2: TCGATAATAAATATTT
As for B1, the binding result with FOXA1-DBD and in the data set with FOXL2-DBD [1] was “binds” throughout.

B2: p53-DNA 26 bp (S0) (dsDNA)
DNA 1: TCAAAAAATATTTATTATCGAGCTCT
DNA 2: AGAGCTCGATAATAAATATTTTTTGA
As for B2, in the data set with FOXA1-DBD S177A, the binding result was “binds”.

B3: DBE2 DNA 16 bp (dsDNA)
DNA 1: CAAAATGTAAACAAGT
DNA 2: ACTTGTTTACATTTTG
For the molecule B3, the Kd (commonly the equilibrium constant for the complex coming apart) with FOXL2-DBD [2] is 0.79 ± 0.1 µM.

B4: p53 mut2 16 bp (ITC) (dsDNA)
DNA 1: AAATATTTATCCCTCA
DNA 2: TGAGGGATAAATATTT
Take B4: the binding result in the data set with FOXL2-DBD [3] was “binds”.

B5: TP53-DNA, 32P probe (dsDNA)
DNA 1: CCCTCATTCAAAAAATATTTATTATCGAGCTCTTACT
DNA 2: AGTAAGAGCTCGATAATAAATATTTTTTGAATGAGGG
Consider B5, for which the binding result with FOXL2 full-length is on record as “binds”.
